We go through two substances from PMC13186710.

The target in experiment [1] is Nonphosphorylated, SAG21k-bound FLAG-tagged mouse Smoothened (residues 64-674) S570C (mouse) (UniProt P56726). Put plainly: cross-linking; disulfide trapping with 5 mM diamide, 1 h, room temperature; FLAG-SMO (4 ul of 12.5 uM) and PKA-C (4 ul of 6.25 uM) in 10 ul, 20 mM HEPES, 150 mM NaCl, 0.025% GDN, SAG21k, 1 mM ATP, 10 mM MgCl2, pH 8.0; non-reducing SDS-PAGE.
For experiment [2], the target named is GRK2-phosphorylated FLAG-tagged mouse Smoothened (residues 64-674), wild type (mouse) (UniProt P56726). Put plainly: SPR; biotinylated SMO nanodiscs captured (Biotin CAPture kit, 250-350 RU); myr-PKA-Cα-K7C 16 nM-1 uM injected; 20 mM MOPS pH 7.0, 150 mM NaCl, 100 uM EDTA, 1 mM ATP, 10 mM MgCl2, 0.001% P20, 25 °C; Biacore 3000; steady-state analysis. (In SPR one partner is held on a chip, and binding of the other changes the refractive index at the surface.)

For experiment [3], the target named is GRK2-phosphorylated FLAG-tagged mouse Smoothened (residues 64-674) I573A F577A R580A (mouse) (UniProt P56726). The description is as above.

What is called Kd is the concentration at which binding is half-saturated. Higher therefore signals a looser complex.

Substance “Mouse PKA-C G136C in the minimal-cysteine ((−)Cys, C199A) background (enzyme)” yielded a percent of the disulfide trapping that depends on SMO phosphorylation (against pSMO S570C) in experiment [1] of 54%.
As for Myristoylated PKA-Cα K7C (enzyme), the results for the Kd in experiment [2] and in experiment [3] were 82 nM and 222 nM, respectively.
